# ± gives the standard deviation of the averaged measurements.
# System: ATP
# Assay: switch fluorescence ratio, 500 uM ATP over buffer (Cy3 cluster intensity, sum of 5 cycles each) (fold (ratio)); higher = stronger signal-on switching upon ATP binding; sequences stand for … in TCGTCGGCAGCGTCAGATGTGTATAAGAGACAGTTTTTTTTTTTTTTTTTTTTTTTTT…TC
# Settings: aptamer strand: ATP DNA aptamer (quencher-CACCTGGGGGAGTATTGCGGAGGAAGG + anchor), 100 nM annealed; ATP concentration: 500 uM
# Summary of the method: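 Five buffer/ATP imaging cycles were run on Cy3-labelled switching-strand clusters on a modified Illumina MiSeq flow-cell, with NaOH stripping and re-annealing between cycles. In each cycle, clusters annealed to 100 nM quencher-labelled ATP aptamer were imaged in selection buffer, then after 15 min with 500 uM ATP at 22 °C. Per cluster, the fluorescence ratio is summed target-cycle over summed buffer-cycle Cy3 intensity, averaged per switch-domain sequence. Only clusters within 100-1000 RFU were kept.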
# 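Note: ATP exposure 15 min at 22 °C before imaging.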
row,Sequence,switch fluorescence ratio
1,ATATCCGGGA,1.03 ± 0.015
2,ATATCGGGGG,1.01 ± 0.081
3,ATATCGTCGG,0.988 ± 0.028
4,ATATCGTGCA,0.9972 ± 0.006
5,ATATCTGGCA,1.02 ± 0.032
6,ATATGATTGA,0.9686 ± 0.0044
7,ATATGCGAAC,1.1 ± 0.035
8,ATATGCGGGT,0.985 ± 0.032
9,ATATGCTAAG,0.9935 ± 0.0099
10,ATATGGAATT,0.977 ± 0.0046
11,ATATGGATGT,0.997 ± 0.029
12,ATATGGATTA,1.012 ± 0.0068
13,ATATGGGGGG,0.998 ± 0.023
14,ATATGGTCTA,0.999 ± 0.053
15,ATATGGTTGA,0.964 ± 0.049
16,ATATGTCTGG,0.953 ± 0.017
17,ATATGTGGAA,1.015 ± 0.01
18,ATATGTGGGA,1.02 ± 0.033
19,ATATGTGTGT,0.995 ± 0.018
20,ATATGTGTTG,0.992 ± 0.0066
21,ATATTACGAA,1.02 ± 0.035
22,ATATTAGGGC,1.02 ± 0.015
23,ATATTAGGGG,1.01 ± 0.032
24,ATATTATTTC,1.006 ± 0.0058
25,ATATTCGATT,0.999 ± 0.027

row,Sequence,switch fluorescence ratio
1,ATATTCTTCC,1.96 ± 0.18
2,ATATTGATGT,1.01 ± 0.037
3,ATATTGATTC,1.01 ± 0.027
4,ATATTGCTCG,1.05 ± 0.06
5,ATATTGCTGA,0.978 ± 0.078
6,ATATTGGAGA,1.13 ± 0.25
7,ATATTGGGGA,1.01 ± 0.025
8,ATATTGGGTT,0.9708 ± 0.0074
9,ATATTGTAAC,0.98 ± 0.013
10,ATATTGTCCA,1.02 ± 0.0039
11,ATATTTAACC,1.02 ± 0.025
12,ATATTTCAGG,0.999 ± 0.027
13,ATATTTGCGT,0.974 ± 0.021
14,ATATTTGGAT,1.03 ± 0.018
15,ATATTTTACG,1.02 ± 0.06
16,ATATTTTAGC,1.03 ± 0.074
17,ATATTTTGTA,0.983 ± 0.036
18,ATCAAAAGCG,0.96765 ± 0.00089
19,ATCAAACGGG,1.02 ± 0.029
20,ATCAAATCGA,1 ± 0.043
21,ATCAAGGGTT,0.991 ± 0.025
22,ATCAAGGTTG,0.978 ± 0.031
23,ATCAAGTGAG,0.998 ± 0.015
24,ATCAATCTCG,1.017 ± 0.0093
25,ATCAATGAAG,0.975 ± 0.023

row,Sequence,switch fluorescence ratio
1,ATCAATGTCT,0.994 ± 0.005
2,ATCAATTTAG,1.02 ± 0.038
3,ATCACAACTG,0.997 ± 0.15
4,ATCACAATTT,1.04 ± 0.017
5,ATCACATTGG,1.02 ± 0.071
6,ATCACGATGG,1.03 ± 0.019
7,ATCACGTCTA,1.024 ± 0.003
8,ATCACGTTTT,0.991 ± 0.051
9,ATCAGAGCCG,0.98 ± 0.083
10,ATCAGATAGG,1 ± 0.026
11,ATCAGATATG,0.9974 ± 0.0033
12,ATCAGCAGGC,1.6 ± 0.045
13,ATCAGGAAAA,1.02 ± 0.071
14,ATCAGGGGGG,1.02 ± 0.037
15,ATCAGGGGTA,1.26 ± 0.34
16,ATCAGGGGTT,1.34 ± 0.6
17,ATCAGGTACG,1.02 ± 0.033
18,ATCAGGTTCT,1.028 ± 0.0031
19,ATCAGTGCGA,1.036 ± 0.0081
20,ATCAGTGGTA,0.987 ± 0.028
21,ATCATAGCGG,1 ± 0.015
22,ATCATATTAG,1.01 ± 0.019
23,ATCATTAATG,1.01 ± 0.014
24,ATCATTAGGA,0.9922 ± 0.0046
25,ATCATTTAGT,0.982 ± 0.027

row,Sequence,switch fluorescence ratio
1,ATCATTTGTC,1.022 ± 0.0092
2,ATCATTTGTT,0.991 ± 0.017
3,ATCCAAATGG,1.01 ± 0.033
4,ATCCAGGGGA,0.989 ± 0.06
5,ATCCAGT,1.036 ± 0.0033
6,ATCCATACAA,1.03 ± 0.035
7,ATCCATTCA,1.02 ± 0.0094
8,ATCCGAAGAT,1.04 ± 0.016
9,ATCCGAGTCA,1.07 ± 0.014
10,ATCCGGGACC,1.06 ± 0.02
11,ATCCGGGATG,1.03 ± 0.021
12,ATCCGGGGGA,1.04 ± 0.11
13,ATCCGTAGGT,0.995 ± 0.029
14,ATCCGTGGTT,1.01 ± 0.047
15,ATCCGTGTCG,1.02 ± 0.048
16,ATCCTCGTTG,1.02 ± 0.03
17,ATCCTGGATA,1.003 ± 0.01
18,ATCCTGGGTG,3.73 ± 1.5
19,ATCCTTGCG,1.022 ± 0.0053
20,ATCCTTGGTC,1.01 ± 0.023
21,ATCGAAGCCA,1.091 ± 0.0016
22,ATCGAGAGGT,0.973 ± 0.019
23,ATCGAGGGGA,0.978 ± 0.019
24,ATCGAGGGGT,0.955 ± 0.037
25,ATCGATATTG,0.991 ± 0.029

# Source: the supplement of paper PMC10126150
